The values below come from the RNAGym collection of RNA variant scans (doi:10.1073/pnas.2313332121).

B1: TPR 5TU (parent)
chain: GGAUCUUCUCGAUCUAACAAAAAAGACAAAUCUGCCACAAAGCUUGAGAGCAUCUUCGGAUGCAGAGGCGGCAGCCUUCGGUGGCGCGAUAGCGCCAACGUUCUCAACUAUGACACGCAAAACGCGUGCUCCGUUGAAUGGAGUUUAUCAUG

This sample holds only a part of the variants without activity.

The series covers variants of B1. As to the kind of experiment: polymerase ribozyme fitness, log enrichment relative to wild type (log ratio); higher = more active; in vitro selection for triplet polymerase activity. The procedure, abridged:
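Only genotypes with ≥10 input reads and ≥1 read per output were kept after Illumina sequencing of input and output libraries. These libraries were PCR-built, transcribed mutants of each subunit of a heterodimeric triplet polymerase ribozyme, each put through one triplicate in vitro selection round with frozen incubation at −7 °C, gel excision of extended constructs, streptavidin-bead capture and RT-PCR. Fitness is a logarithmic ratio of genotype enrichment to wild-type enrichment, from inverse-variance-weighted replicate averages, with the logarithm in base 2.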
As for GGAUCUUCUCGCUCUAACAAAAAAGACAAAUCUGCCGCAAAGCUUCAGAGCAUCUUCGGAUGCAGAGGCGGCAGCCUUCGGUGGCGCGAUAGCGCGAACGUUCUCAACUGUGACAUGCAAAACGCGUGCUCCGUGGAAUGGAGUUUAUCAUG [A12C A37G G46C C96G A110G C116U U135G], the “polymerase ribozyme fitness (log ratio)” value was ≤ -4.2.
The figure for GGAUCUUCUCGCUCUAACAAAAAAGACAAAUCUGCCACAAAGCUUGAGAGCAUUUUCGGAUGCAGAGGCGGCAGCCUUCGGUGGCGCGAUAGCGCCAACGUUCUCAACUAUGACACGCAAAACGCGUGCUCCGUUGAAUGGAGUUUAUCAUG [A12C C54U] is -0.207; for GGAUCUUCUCGCUCUAACAAAAAAGACAAAUCUGCCACAAAGCUUGAGAGCAUCUUCGGAUGCAGAGGCGGCAGCCUUCGGUGACGCGAUAGCGCCAACGUUCUCAACUAUGACACGCAAAACGCGUGCUCCGUUGAAUGGAGUUUAUCAUG [A12C G84A] it is -0.118.
The value for GGAUCUUCUCGGUCUUACAAAAAAGACAAAUCUGCCACAAAGCUUGAGAACAUCUUCGGAUGCAGAGGCGGCAGCCUUCGGUCGAGCGACAGCGCCAACGUUCUCAACUAUGACACGCAAAACGCGUGCUCCGUUGAAUGGAGUUUAUCAUG [A12G A16U G50A G83C C85A U90C] was ≤ -4.2.
On to GGAUCUUCUCGCUCUAACAAAAAAGACAAAUCUGCCACUAAGCUUGAGAGCAUCUUCGGAUGCAGAGGCGGCAGCCUUCGGUGGCGCCAUAGCGCCAACGUUCUCAACUAUGACCCGCAAAACGCAUGCUCCGUUGAAUGGAGUUUAUCAUG [A12C A39U G88C A115C G126A], for which the “polymerase ribozyme fitness (log ratio)” value was ≤ -4.2.
With GGAUCUUCUCGCUCUAACAAAAAAGACAAAUCUGCCACAAAGCUUGAGAGCGUCUUCGGAUGCAGAGUCGGCAGCCUUCGGUGGCGCGAUAGCGCCAUCGUUCUCAACUAUGACACGCAAAACGCGUGCUCCGUUGAAUGGAGUUUAUCAUG [A12C A52G G68U A98U], the “polymerase ribozyme fitness (log ratio)” value is -4.19.
GGAUCUUCUCGCUCUAACAAAAAAGACAAAUCUGCCACAAAGCUUGAGAACAUCUUCGCAUGCAGAGGCGGCAGCCUUCGGUGGCGCGAUAUCGCCAACGUUCUCAACUAUGACACGCAAAACGCGUGCUCCGUUGAAUGGAGUUUAUCAUG [A12C G50A G59C G92U]: the “polymerase ribozyme fitness (log ratio)” value was -2.67.
The value for GGAUCUUCUCGCUCUAACAAAAAAGACAAAUCUGCCACAAAGCUUGAGAGCAUCUUCGGAUGCAGAGGCGGCAGCCUUCGGUGGCGCGAUAGCGCCAACGUUCUCAACUAUGAUACGCAAAACGCGUGCUCCGUUGAAUGGAGUUUAUCAUG [A12C C114U] was -2.51.
The value for GGAUCUUCUCGCUCUAACAAAAAAGACAAAUCUGCCAUAAAGCUUGAGACCAACGUCGGAUGCAGAGGCGUCAGCCUUCGGUGGCGCGAUAUCGCCAACGUUCUCAACUAUGACACGCAAAACGCGUGCUCCGUUGAAUGGAGUUUACCAUG [A12C C38U G50C U53A U55G G71U G92U U148C] was ≤ -4.2; that for GGAUCUUCUCGCUCUAACAAAAAAGACAAAUCUGCCACAAAGCUUGAGAGCAUCUUCGGAUGCAGAGGCGGCAGCCUUCGGUGGCGUGAUAGCGCCAACGUUCUCAACUAUGACCCGCAAAACGCGUGCUCCGUUGAAUGGAGUUUAUCAUG [A12C C87U A115C] was -1.97.
For GGAUCUUCUCGCUCUAACAAAAAAGACAAAUCUGCCACAAAGCUUGAGAGCAUUUUCGGAUGCAGAGGCGGCAGCCUUCGGUGGCGCGAUUGCGCCAACGUUCUCAACUAUGACACGCAAAACGCGUGCUCCGUUGAAUGGAGUUUAUCAUG [A12C C54U A91U], the “polymerase ribozyme fitness (log ratio)” value is ≤ -4.2.
Turning to GGAUCUUCUCGCUAUAACAAAAAAGACAAUUCUGCCACCAAGCUUGAGAGCAUCUUCCGAUGCAGAGGCGGCAGCCUUCGGUCGCGCGAUAGCGCCAACGUUCUCAACUAUGACACGCAAAACUCGUGCUCCGUUGAAUGGAGUUUAUCAUG [A12C C14A A30U A39C G58C G83C G124U], the “polymerase ribozyme fitness (log ratio)” value was ≤ -4.2.
The figure for GGAUCUUCUCGCUCUAACAAAAAAGACAAAUCUGCCACAAAGCUUGAGAGCAUCUUCGGAUGCAGAGGCGGCAGCCUUCGGUGGCGCGAUAGAGCCAACGUUCUCAACUAUGACACGCAAAACGCGUGCUCCGUUGAAUGGAGUUUAUCAUG [A12C C93A] is -2.68; for GGAUCUUCUCGCUCUAACAAAAAAGACAAAUCUGCCACAAAGCUUGAGAGCAUCUUCGGAUGCAGAGGCGGCAGCAUUCGGUGGCGCGAUUGCGCCAACGUUCUCAACUAUGACACGCAAAACGCGUGCUCCGUUGAAUGGAGUUUAUCAUG [A12C C76A A91U] it is ≤ -4.2.
For the variant GGAUCUUCUCGCUCUAACAAAAAAGACAAAUCUGCCACAAAGCUUGAGAGCAUCUUCGGAUGCAGAGGCGGCAGCCUUCGGUGGCGCGAUAGCGCCAAUGUUCUGAACUAUGACACGCAAAACGCGUGCUCCGUUGAAUGGAGUUUAUCAUG [A12C C99U C105G], the “polymerase ribozyme fitness (log ratio)” value was ≤ -4.2.
The figure for GGAUCUUCUCGCUCUAACAAAAAAGACAAAUCUGCCACAAAGCUUGAGAGCAUCUUCGGAUGCAGAGGCGGCAGCCUUCGGUGGCGCGAUACCGCCAACGUUCUCAACUAUGACACGCAAAACGCGUGCUCCGUUGAAUGGAGUUUAUCAUG [A12C G92C] is -0.73.
The value for GGAUCUUCUCGCUCUAACAAAAAAUACAAAUCUGCCACAAAGCUUGAGAGCAUCACCGGAUGCAGAGGCGGCAGCCUUCGGUCGCGCGAUAGCGCCAACGUUCUCAACUAUGACACGCAAAACGCGUGCUCCGUUGAAUGGAGUUUAUCAUG [A12C G25U U55A U56C G83C] was ≤ -4.2; that for GGAUCUUCUCGCUCUAACAAAAAAGACAAAUCUGCCACAAAGCUUGAGAGCCUUUUCGGAUGCAGAGGCGGCAGCCUUCGGUGGCGCGAUAGCGCAAACGUUCUCAACUAUGACACGCAAAACGCGUGCUCCGUUGAAUGGAGUUUAUCAUG [A12C A52C C54U C96A] was -3.95; that for GGAUCUUCUCGCUCUAACAAAAAAGACAAAUCUGCCACAAAGCUUUAGAGCAUCUUCGGAUGCAGAGGCGGCAGCCUUCGGUGGCGCGAUAGCGCCAACGUUCUCAACUAUGUCACGUAAAACGCGUGCUCCGUUGAAUGGAGUUUAUCAUG [A12C G46U A113U C118U] was -3.95.
